{"source": "the supplement of paper PMC11316812", "key": {"[1]": {"system": "hTERT-HMEC", "assay": "percentage of EdU-negative (G0-arrested) nuclei per well, 72 h; higher = more G0 arrest", "conditions": "reference: sequence is the full UniProt precursor, the tested protein was the secreted form or ectodomain"}, "[2]": {"system": "MCF7", "assay": "percentage of EdU-negative (G0-arrested) nuclei per well, 72 h; higher = more G0 arrest", "conditions": "reference: sequence is the full UniProt precursor, the tested protein was the secreted form or ectodomain"}, "[3]": {"conditions": "protein concentration 0.022125 µM"}, "[4]": {"conditions": "protein concentration 0.22125 µM"}, "[5]": {"conditions": "protein concentration 0.0225 µM"}, "[6]": {"conditions": "protein concentration 0.02275 µM"}, "[7]": {"conditions": "protein concentration 0.2275 µM"}, "[8]": {"conditions": "protein concentration 0.0135 µM"}, "[9]": {"conditions": "protein concentration 0.0168571 µM"}, "[10]": {"conditions": "protein concentration 0.168571 µM"}}, "note": "± gives the standard deviation of the averaged measurements.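 Further: secreted proteins added to cultured cells, EdU pulse at the end, nuclei found by Hoechst imaging, EdU status from nuclear versus surrounding ring intensity ratio, PBS as neutral control.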"}
{"sequence": "MDMWTALLILQALLLPSLADGATPALRFVAVGDWGGVPNAPFHTAREMANAKEIARTVQILGADFILSLGDNFYFTGVQDINDKRFQETFEDVFSDRSLRKVPWYVLAGNHDHLGNVSAQIAYSKISKRWNFPSPFYRLHFKIPQTNVSVAIFMLDTVTLCGNSDDFLSQQPERPRDVKLARTQLSWLKKQLAAAREDYVLVAGHYPVWSIAEHGPTHCLVKQLRPLLATYGVTAYLCGHDHNLQYLQDENGVGYVLSGAGNFMDPSKRHQRKVPNGYLRFHYGTEDSLGGFAYVEISSKEMTVTYIEASGKSLFKTRLPRRARP", "values": [{"measurement": "percentage of EdU-negative", "setting": "[1]; [3]", "value": "4.67 ± 0.33", "unit": "%"}, {"measurement": "percentage of EdU-negative", "setting": "[1]; [4]", "value": "8.42 ± 0.15", "unit": "%"}, {"measurement": "percentage of EdU-negative", "setting": "[2]; [3]", "value": "24.4 ± 1.2", "unit": "%"}, {"measurement": "percentage of EdU-negative", "setting": "[2]; [4]", "value": "28.4 ± 1.4", "unit": "%"}]}
{"sequence": "MALPSLLLLVAALAGGVRPPGARNLTLAVVLPEHNLSYAWAWPRVGPAVALAVEALGRALPVDLRFVSSELEGACSEYLAPLSAVDLKLYHDPDLLLGPGCVYPAASVARFASHWRLPLLTAGAVASGFSAKNDHYRTLVRTGPSAPKLGEFVVTLHGHFNWTARAALLYLDARTDDRPHYFTIEGVFEALQGSNLSVQHQVYAREPGGPEQATHFIRANGRIVYICGPLEMLHEILLQAQRENLTNGDYVFFYLDVFGESLRAGPTRATGRPWQDNRTREQAQALREAFQTVLVITYREPPNPEYQEFQNRLLIRAREDFGVELGPSLMNLIAGCFYDGILLYAEVLNETIQEGGTREDGLRIVEKMQGRRYHGVTGLVVMDKNNDRETDFVLWAMGDLDSGDFQPAAHYSGAEKQIWWTGRPIPWVKGAPPSDNPPCAFDLDDPSCDKTPLSTLAIVALGTGITFIMFGVSSFLIFRKLMLEKELASMLWRIRWEELQFGNSERYHKGAGSRLTLSLRGSSYGSLMTAHGKYQIFANTGHFKGNVVAIKHVNKKRIELTRQVLFELKHMRDVQFNHLTRFIGACIDPPNICIVTEYCPRGSLQDILENDSINLDWMFRYSLINDLVKGMAFLHNSIISSHGSLKSSNCVVDSRFVLKITDYGLASFRSTAEPDDSHALYAKKLWTAPELLSGNPLPTTGMQKADVYSFGIILQEIALRSGPFYLEGLDLSPKEIVQKVRNGQRPYFRPSIDRTQLNEELVLLMERCWAQDPAERPDFGQIKGFIRRFNKEGGTSILDNLLLRMEQYANNLEKLVEERTQAYLEEKRKAEALLYQILPHSVAEQLKRGETVQAEAFDSVTIYFSDIVGFTALSAESTPMQVVTLLNDLYTCFDAIIDNFDVYKVETIGDAYMVVSGLPGRNGQRHAPEIARMALALLDAVSSFRIRHRPHDQLRLRIGVHTGPVCAGVVGLKMPRYCLFGDTVNTASRMESNGQALKIHVSSTTKDALDELGCFQLELRGDVEMKGKGKMRTYWLLGERKGPPGLL", "values": [{"measurement": "percentage of EdU-negative", "setting": "[1]; [5]", "value": "4.62 ± 0.46", "unit": "%"}, {"measurement": "percentage of EdU-negative", "setting": "[1]; protein concentration 0.225 µM", "value": "6.68 ± 1.3", "unit": "%"}, {"measurement": "percentage of EdU-negative", "setting": "[2]; [5]", "value": "28 ± 1", "unit": "%"}, {"measurement": "percentage of EdU-negative", "setting": "[2]; protein concentration 0.225 µM", "value": "28.8 ± 1.5", "unit": "%"}]}
{"sequence": "MGILKLQVFLIVLSVALNHLKATPIESHQVEKRKCNTATCATQRLANFLVHSSNNFGAILSSTNVGSNTYGKRNAVEVLKREPLNYLPL", "values": [{"measurement": "percentage of EdU-negative", "setting": "[1]; [6]", "value": "4.22 ± 0.57", "unit": "%"}, {"measurement": "percentage of EdU-negative", "setting": "[1]; [7]", "value": "5.2 ± 0.82", "unit": "%"}, {"measurement": "percentage of EdU-negative", "setting": "[2]; [6]", "value": "26.1 ± 1.4", "unit": "%"}, {"measurement": "percentage of EdU-negative", "setting": "[2]; [7]", "value": "26.8 ± 4.2", "unit": "%"}]}
{"sequence": "MWLLVSVILISRISSVGGEATFCDFPKINHGILYDEEKYKPFSQVPTGEVFYYSCEYNFVSPSKSFWTRITCTEEGWSPTPKCLRLCFFPFVENGHSESSGQTHLEGDTVQIICNTGYRLQNNENNISCVERGWSTPPKCRSTDTSCVNPPTVQNAHILSRQMSKYPSGERVRYECRSPYEMFGDEEVMCLNGNWTEPPQCKDSTGKCGPPPPIDNGDITSFPLSVYAPASSVEYQCQNLYQLEGNKRITCRNGQWSEPPKCLHPCVISREIMENYNIALRWTAKQKLYLRTGESAEFVCKRGYRLSSRSHTLRTTCWDGKLEYPTCAKR", "values": [{"measurement": "percentage of EdU-negative", "setting": "[1]; [8]", "value": "5.26 ± 0.45", "unit": "%"}, {"measurement": "percentage of EdU-negative", "setting": "[1]; protein concentration 0.135 µM", "value": "5.53 ± 0.48", "unit": "%"}, {"measurement": "percentage of EdU-negative", "setting": "[2]; [8]", "value": "25.1 ± 1.9", "unit": "%"}, {"measurement": "percentage of EdU-negative", "setting": "[2]; protein concentration 0.135 µM", "value": "25.3 ± 0.89", "unit": "%"}]}
{"sequence": "MLLVLVVLIPVLVSSGGPEGHYEMLGTCRMVCDPYPARGPGAGARTDGGDALSEQSGAPPPSTLVQGPQGKPGRTGKPGPPGPPGDPGPPGPVGPPGEKGEPGKPGPPGLPGAGGSGAISTATYTTVPRVAFYAGLKNPHEGYEVLKFDDVVTNLGNNYDAASGKFTCNIPGTYFFTYHVLMRGGDGTSMWADLCKNGQVRASAIAQDADQNYDYASNSVILHLDAGDEVFIKLDGGKAHGGNSNKYSTFSGFIIYSD", "values": [{"measurement": "percentage of EdU-negative", "setting": "[1]; [9]", "value": "4.78 ± 0.083", "unit": "%"}, {"measurement": "percentage of EdU-negative", "setting": "[1]; [10]", "value": "8.79 ± 0.3", "unit": "%"}, {"measurement": "percentage of EdU-negative", "setting": "[2]; [9]", "value": "27 ± 0.61", "unit": "%"}, {"measurement": "percentage of EdU-negative", "setting": "[2]; [10]", "value": "28.3 ± 0.59", "unit": "%"}]}
{"sequence": "MAEGNTLISVDYEIFGKVQGVFFRKHTQAEGKKLGLVGWVQNTDRGTVQGQLQGPISKVRHMQEWLETRGSPKSHIDKANFNNEKVILKLDYSDFQIVK [G3V2U7]", "values": [{"measurement": "percentage of EdU-negative", "setting": "[1]; [5]", "value": "4.35 ± 0.4", "unit": "%"}, {"measurement": "percentage of EdU-negative", "setting": "[1]; protein concentration 0.225 µM", "value": "5.31 ± 0.75", "unit": "%"}, {"measurement": "percentage of EdU-negative", "setting": "[2]; [5]", "value": "24.4 ± 1.6", "unit": "%"}, {"measurement": "percentage of EdU-negative", "setting": "[2]; protein concentration 0.225 µM", "value": "25.9 ± 3.2", "unit": "%"}]}
{"sequence": "MDPGLQQALNGMAPPGDTAMHVPAGSVASHLGTTSRSYFYLTTATLALCLVFTVATIMVLVVQRTDSIPNSPDNVPLKGGNCSEDLLCILKRAPFKKSWAYLQVAKHLNKTKLSWNKDGILHGVRYQDGNLVIQFPGLYFIICQLQFLVQCPNNSVDLKLELLINKHIKKQALVTVCESGMQTKHVYQNLSQFLLDYLQVNTTISVNVDTFQYIDTSTFPLENVLSIFLYSNSD", "values": [{"measurement": "percentage of EdU-negative", "setting": "[1]; [5]", "value": "4.46 ± 0.73", "unit": "%"}, {"measurement": "percentage of EdU-negative", "setting": "[1]; protein concentration 0.225 µM", "value": "6.03 ± 0.4", "unit": "%"}, {"measurement": "percentage of EdU-negative", "setting": "[2]; [5]", "value": "28 ± 0.99", "unit": "%"}, {"measurement": "percentage of EdU-negative", "setting": "[2]; protein concentration 0.225 µM", "value": "27.5 ± 1.8", "unit": "%"}]}
